Test results from paper PMC12521282.

Tests used:
Conditions in all cases: glycan lost; control: wild type
[1] = DSLNT formation, TLC and HPLC
[2] = secreted protein yield, P. pastoris X-33
[3] = CD spectroscopy, secondary structure content
[4] = NanoDSF, onset and Tm, Tris and HEPES
[5] = NanoDSF, midpoint melting temperature
[6] = NanoDSF, onset of melting, Tris buffer

Protein	enzymatic_activity [1]	expression_or_secretion, fold_change [2]	structure_or_conformation [3]	stability_or_folding, Tm [4]	stability_or_folding, Tm [5]	stability_or_folding, other: onset-of-melting temperature [6]	enzymatic_activity, other: DSLNT produced [1]
ST6GalNAc6 (Δ70ST6GalNAc6): N98Q/N149Q (protein) parent chain: MACSRPPSQCEPTSLPPGPPAGRRHLPLSRRRREMSSNKEQRSAVFVILFALITILILYSSNSANEVFHYGSLRGRSRRPVNLKKWSITDGYVPILGNKTLPSRCHQCVIVSSSSHLLGTKLGPEIERAECTIRMNDAPTTGYSADVGNKTTYRVVAHSSVFRVLRRPQEFVNRTPETVFIFWGPPSKMQKPQGSLVRVIQRAGLVFPNMEAYAVSPGRMRQFDDLFRGETGKDREKSHSWLSTGWFTMVIAVELCDHVHVYGMVPPNYCSQRPRLQRMPYHYYEPKGPDECVTYIQNEHSRKGNHHRFITEKRVFSSWAQLYGITFSHPSWT	abolishes	decreases	changes	decreases, reduced by 7.3 (Tris), 10 (HEPES) vs 56.8	–	–	–
ST6GalNAc5 (Δ71ST6GalNAc5): N137Q/N161Q (protein) parent chain: MKTLMRHGLAVCLALTTMCTSLLLVYSSLGGQKERPPQQQQQQQQQQQQASATGSSQPAAESSTQQRPGVPAGPRPLDGYLGVADHKPLKMHCRDCALVTSSGHLLHSRQGSQIDQTECVIRMNDAPTRGYGRDVGNRTSLRVIAHSSIQRILRNRHDLLNVSQGTVFIFWGPSSYMRRDGKGQVYNNLHLLSQVLPRLKAFMITRHKMLQFDELFKQETGKDRKISNTWLSTGWFTMTIALELCDRINVYGMVPPDFCRDPNHPSVPYHYYEPFGPDECTMYLSHERGRKGSHHRFITEKRVFKNWARTFNIHFFQPDWKPESLAINHPENKPVF	–	decreases	changes	–	no change	decreases	decreases, 0.189 ± 0.005 (4.5 µM enzyme) vs 0.202 ± 0.036 (1.0 µM enzyme)
